How the values were obtained:
[1] = test system: NIH 3T3 fibroblasts; experiment: Fisp12/Cyr61 cell attachment and spreading, NIH 3T3; type: cell-based, mouse; details: for cell attachment to coated dishes: coating 20 μg/ml, NIH 3T3 fibroblasts
Method: Another embodiment of the invention is directed to the use of Cyr61 to mediate cellular attachment to the extracellular matrix. Induction of cellular adhesion was investigated using murine Cyr61, fibronectin, and bovine serum albumin (BSA). Immunological 96-well plates (Falcon brand) were coated with 50 μl of 0.1% BSA in PBS at 4° C. in the presence of 0-30 μg/ml concentrations of murine Cyr61 or fibronectin. After two hours exposure to the coating solution, non-diluted immune or pre-immune antisera (30 μl/well), or affinity-purified anti-Cyr61 antibodies were added. For some wells, the coating mixture was adjusted to 10 mM DTT or 100 mM HCl. After 16 hours incubation, the coating solution was removed and the well surface was blocked with 1% BSA in phosphate-buffered saline (PBS) for 1 hour at room temperature. HUVE cells were plated in Ham's complete F12K medium [GIBCO-BRL, Inc.; Ham, Proc. Natl. Acacd. Sci. (USA) 53:786 (1965)] at 5×10^3-10^4 cells/well. Cycloheximide was added to 100 μg/ml immediately before plating and monensin was added to 1 μM 14 hours before plating. After a 2-hour incubation at 37° C., the wells were washed with PBS and attached cells were fixed and stained with methylene blue. The attachment efficiency was determined by quantitative dye extraction and measurement of the extract absorbance at 650 nm. Oliver et al., J. Cell. Sci. 92:513-518 (1989).
(§1) The capacity of Fisp12 to affect cell adhesion was also investigated. Fisp12 cell attachment assays were performed essentially as described (Oliver et al., [1989]). 96-well immunological plates were coated for 16 hours at 4° C. with 20 μg/ml Cyr61, Fisp12 or fibronectim (Gibco BRL) in PBS containing 0.1 mg/ml BSA and blocked with 10 mg/ml BSA for 1 hour at room temperature. HUVE cells were plated at 10^4 cells/well in F12K media with 10% FBS (Hyclone Laboratories, Inc., Logan, Utah); NIH 3T3 fibroblasts were plated at 3×10^4 cells/well and Mv1Lu cells were plated at 5×10^4 cells/well in minimal essential medium (MEM) with 10% FBS. After 1 hour incubation cells were fixed, stained with methylene blue and quantified as described (Oliver et al., [1989]). Cell spreading was examined on cells plated on 100 mm polystyrene petri dishes coated with 2.5 ml of a 20 μg/ml solution of Cyr61, Fisp12 or fibronectin. 10^7 cells were plated on each dish and cell spreading was analyzed 90 minutes after plating by microscopy at 100× magnification.

[2] = test system: HUVE cells; experiment: Fisp12 cell attachment assay, HUVE cells; type: cell-based, human; details: coating 20 μg/ml, HUVE cells
Method: as §1

[3] = test system: cornea; experiment: Cornea assay for angiogenic factors; type: in vivo, rat; details: for angiogenic effect in cornea assay: rat, in vivo
Source text: Another assay for modulators of angiogenesis is an in vivo assay for assessing the effect of a suspected modulator in the presence of an ECM signaling molecule-related biomaterial, such as Cyr61, on angiogenesis is the Cornea Assay. The Cornea Assay takes advantage of the absence of blood vessels in the cornea, which in the presence of an angiogenic factor, results in the detectable development of capillaries extending from the sclera into the cornea. Friedlander et al., Science 270:1500-1502 (1995). This ingrowth of new blood vessels from the sclera can be microscopically monitored. Further, the visually determined rate of migration can be used to assess changes in the rate of angiogenesis. These cornea assays may be performed using a wide variety of animal models. Preferably, the cornea assays are performed using rats. By way of example, an assay for suspected modulators of Cyr61 using this assay is disclosed. To perform this assay, Cyr61 is initially titrated using primary capillary endothelial cells to determine effective concentrations of Cyr61. Subsequently, Cyr61, in the presence or absence of a suspected modulator, is surgically implanted into the corneas of mammalian laboratory animals, e.g., rabbits or rats. In a preferred embodiment, Cyr61 (or Cyr61 and a suspected modulator) is embedded in a biocompatible matrix, using matrix materials and techniques that are standard in the art. Subsequently, eyes containing implants are visually observed for growth of the readily visible blood vessels within the eye. Control implantations may consist of physiologically balanced buffers embedded in the same type of matrix and implanted into eyes of the same type of laboratory animal receiving the Cyr61-containing implants.
Although rats of various sizes can be used in the cornea assay, a preferred size for the rats is 150-200 g/animal. Anesthesia is induced with Methoxyflurane and is maintained for 40-60 minutes with sodium pentobarbital (50 mg/kg, delivered intraperitoneally). The eyes are gently opened and secured in place by clamping the upper eyelid with a non-traumatic hemostat. Two drops of sterile proparacaine hydrochloride (0.5%) are then placed on each eye as to effect local anesthesia. Using a suitable surgical blade such as a No. 11 Bard Parker blade, an approximately 1.5 mm incision is made approximately 1 mm from the center of the cornea. […] Once the cornea pocket is made, the spatula is removed and the distance between the limbus and base of the pocket is measured to make sure the separation is at least about 1 mm. […]
Following surgery, animals are examined daily for seven days with the aid of a stereomicroscope to check for inflammation and responses. […] During this seven day period, animals are monitored for implant position and corneal exudate. […]

[4] = test system: mink lung epithelial (Mv1Lu) cells; experiment: Fisp12 cell attachment assay, Mv1Lu cells; type: cell-based; details: coating 20 μg/ml
Method: as §1

Molecule	cell attachment to coated dishes [1]	attachment of NIH 3T3 cells to murine Cyr61-coated surfaces ([1]; method of b177)	cell attachment to coated dishes [2]	eyes showing blood vessel growth after seven days ([3]; FGF 0.15 μM (six animals), Cyr61 1 μg/ml (seven animals))	angiogenic effect in cornea assay [3]	cell attachment to coated dishes [4]	cell spreading ([1]; dishes coated with 20 μg/ml, 90 minutes)
Cyr61: Cysteine-rich ECM signaling protein; murine sequence SEQ ID NO:2, recombinant from Baculovirus-infected Sf9 cells (protein, listed as Mus musculus) MSSSTFRTLAVAVTLLHLTRLALSTCPAACHCPLEAPKCAPGVGLVRDGCGCCKVCAKQLNEDCSKTQPCDHTKGLECNFGASSTALKGICRAQSEGRPCEYNSRIYQNGESFQPNCKHQCTCIDGAVGCIPLCPQELSLPNLGCPNPRLVKVSGQCCEEWVCDEDSIKDSLDDQDDLLGLDASEVELTRNNELIAIGKGSSLKRLPVFGTEPRVLFNPLHAHGQKCIVQTTSWSQCSKSCGTGISTRVTNDNPECRLVKETRICEVRPCGQPVYSSLKKGKKCSKTKKSPEPVRFTYAGCSSVKKYRPKYCGSCVDGRCCTPLQTRTVKMRFRCEDGEMFSKNVMMIQSCKCNYNCPHPNEASFRLYSLFNDIHKFRD	promoted the attachment	promoted the attachment of NIH 3T3 cells, though less effectively than fibronectin	promoted the attachment	all seven	confirm the effect of angiogenic factors	promoted the attachment	–
Fisp12: Cysteine-rich murine protein, SEQ ID NO:6, mouse ortholog of CTGF (protein, listed as Mus musculus) MLASVAGPISLALVLLALCTRPATGQDCSAQCQCAAEAAPHCPAGVSLVLDGCGCCRVCAKQLGELCTERDPCDPHKGLFCDFGSPANRKIGVCTAKDGAPCVFGGSVYRSGESFQSSCKYQCTCLDGAVGCVPLCSMDVRLPSPDCPFPRRVKLPGKCCKEWVCDEPKDRTAVGPALAAYRLEDTFGPDPTMMRANCLVQTTEWSACSKTCGMGISTRVTNDNTFCRLEKQSRLCMVRPCEADLEENIKKGKKCIRTPKIAKPVKFELSGCTSVKTYRAKFCGVCTDGRCCTPHRTTTLPVEFKCPDGEIMKKNMMFIKTCACHYNCPGDNDIFESLYYRKMYGDMA	promoted the attachment	–	promoted the attachment	–	confirm the effect of angiogenic factors	promoted the attachment	promotes cell spreading

Reference: patent US7521540B2, “CYR61 compositions and methods” (Munin Corporation, priority 1996, dated 2009)
